Two proteins from PMC12347638, “Fungal Laccases with High and Medium Redox Potential: Is the T1 Center Potential a Key Characteristic of Catalytic Efficiency in Heterogeneous and Homogeneous Reactions?” (International Journal of Molecular Sciences, 2025) can be followed below.

Substrate in series [1]: CCn1c(=NN=c2sc3cc(S(=O)(=O)O)ccc3n2CC)sc2cc(S(=O)(=O)O)ccc21
The series can be described thus: purified protein. The series is classed as biochemical, Metuloidea murashkinskyi. Conditions: air-saturated 0.1 M Na-citrate-phosphate buffer, pH 5.5, 23 °C, O2 co-substrate, free enzyme.

Substrate in series [2]: CCn1c(=NN=c2sc3cc(S(=O)(=O)O)ccc3n2CC)sc2cc(S(=O)(=O)O)ccc21
The series can be described thus: purified protein. The series is classed as biochemical, Antrodiella faginea. Particulars: air-saturated 0.1 M Na-citrate-phosphate buffer, pH 5.5, 23 °C, O2 co-substrate, free enzyme.

B1: SmL (Lac2), Steccherinum murashkinskyi laccase (Metuloidea murashkinskyi) (protein)
chain: AQIGPVTDLHITNANISPDGFSRPAVLAGGTFPGPTIAGNTGDNFQITVFNDLTDPSMLTDTSIHWHGLFQKGTNWADGPAFVTQCPIITGQSFDYNFNVPGQAGTFWYHSHLSTQYCDGLRGPFVVYDPNDPNASLYDVDDDTTIITLADWYHTLAQQEPIGAAITADATLINGLGRSFTNTTASPLSVITVQSGKRYRMRLVSISCDPNYLFSIDGHDMTIIEVDGVNSQQLTVDQIQIFAAQRYSFVLNANQPVGNYWIRAQPNSGGQGFDGGINSAILRYEGATVEDPTTTAPTTFSNPLVETDLHPLADLGVPGQPFRGGADDPLVLNLAFANGRFSIDGVSFVPPTVPVLLQILSGAQNAQDLLPAGSVISLPSNSVIEVALPAGAAGGPHPFHLHGHNFAVVQSANNATPNYVNPIWRDTVSIGGTGDNVTIRFTTNNPGPWFLHCHIDWHLEAGFAIVFAEDIPDTASANPVPQAWSDLCPAYDQAHNISTATRQDFQILCICGILHVNFRQEERCGIS
notes: native secreted enzyme purified from culture liquid
Usually Km stands for the concentration of substrate that gives half-maximal velocity. As usually defined, the kcat is the maximal rate divided by the concentration of active sites. The term kcat/Km denotes the second-order rate constant that governs catalysis at low substrate concentration. Regarding B1, in “purified protein [1]”, the Michaelis constant (Km) is 71.7 ± 2.9 µM, the kcat was 33.3 ± 1.4 s⁻¹ and the catalytic efficiency (kcat/Km) was determined as 460000 M⁻¹ s⁻¹.

B2: AfL (LacA), Antrodiella faginea laccase (Antrodiella faginea) (protein)
chain: AIGPVADLKIVNANIQPDGFTRPAVLAGGTFPGPLIKGNKGDNFQLNVIDELENEDMLKSTSIHWHGFFQHGTNWADGPAFVNQCPITTGHSFLYNFHVPDQAGTFWYHSHLSTQYCDGLRGPMVVYDPHDPLKQLYDVDDESTVMTLADWYHTLARQEPPGPVTPDSTLINGLGRAPGQTTPSELAVLTVKRGTRYRIRLINISCEPNYHYSIDNHDLTVIEADGVSTQSLTVSSLTIFAGQRYSFILNANQPVGNYWIRAQPNDAADVTFNGGINSAILRYEGAPVAEPNTTAGPDNTPLLEVNIRPFVFTPVPGQPHAGGADFVKNLLFSFNGTNFQVDNVSFVPPTVPILLQILSGAHTAQDLMPAGSIIPLPKNAVIEFSMPGGVVGGGHPIHLHGHNFWVIRSANSSVYNYNDPVIRDVVNIGTTGDNVTIRFETNNPGPWFLHCHIDWHLDLGFAVVMAEDIPDAAAANPVPAAWNELCPLYDALTPGNQ
notes: as for B1
Turning to B2, in “purified protein [2]”, the Km was 4.9 ± 0.4 µM, the kcat was 32.7 ± 1.1 s⁻¹ and the catalytic efficiency (kcat/Km) was 6.67e+06 M⁻¹ s⁻¹.
